T1: sN-TALER IV-1 (GinH106Y-TALE13) (synthetic)
T1 chain: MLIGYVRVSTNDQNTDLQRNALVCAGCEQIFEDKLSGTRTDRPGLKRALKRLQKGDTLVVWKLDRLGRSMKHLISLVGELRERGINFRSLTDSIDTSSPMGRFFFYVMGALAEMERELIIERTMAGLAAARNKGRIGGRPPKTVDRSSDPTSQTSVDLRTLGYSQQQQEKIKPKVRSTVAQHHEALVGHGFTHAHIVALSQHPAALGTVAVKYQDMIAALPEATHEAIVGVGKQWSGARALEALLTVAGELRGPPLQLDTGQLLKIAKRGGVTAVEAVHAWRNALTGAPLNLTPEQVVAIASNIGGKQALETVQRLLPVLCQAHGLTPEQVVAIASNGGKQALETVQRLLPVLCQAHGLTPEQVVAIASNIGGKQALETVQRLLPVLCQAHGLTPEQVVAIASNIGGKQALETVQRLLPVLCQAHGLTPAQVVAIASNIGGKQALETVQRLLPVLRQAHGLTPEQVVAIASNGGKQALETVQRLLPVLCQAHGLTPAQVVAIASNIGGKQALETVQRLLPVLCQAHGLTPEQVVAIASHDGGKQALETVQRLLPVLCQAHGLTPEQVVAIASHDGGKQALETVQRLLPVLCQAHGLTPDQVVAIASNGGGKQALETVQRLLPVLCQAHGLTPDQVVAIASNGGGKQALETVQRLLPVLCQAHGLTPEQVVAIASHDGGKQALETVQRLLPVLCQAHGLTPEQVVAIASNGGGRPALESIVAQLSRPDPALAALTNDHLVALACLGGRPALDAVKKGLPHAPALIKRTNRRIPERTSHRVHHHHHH

T2: pN-TALER IV-1-EE2 (GinL7C7-EE2-TALE13) (synthetic)
T2 chain: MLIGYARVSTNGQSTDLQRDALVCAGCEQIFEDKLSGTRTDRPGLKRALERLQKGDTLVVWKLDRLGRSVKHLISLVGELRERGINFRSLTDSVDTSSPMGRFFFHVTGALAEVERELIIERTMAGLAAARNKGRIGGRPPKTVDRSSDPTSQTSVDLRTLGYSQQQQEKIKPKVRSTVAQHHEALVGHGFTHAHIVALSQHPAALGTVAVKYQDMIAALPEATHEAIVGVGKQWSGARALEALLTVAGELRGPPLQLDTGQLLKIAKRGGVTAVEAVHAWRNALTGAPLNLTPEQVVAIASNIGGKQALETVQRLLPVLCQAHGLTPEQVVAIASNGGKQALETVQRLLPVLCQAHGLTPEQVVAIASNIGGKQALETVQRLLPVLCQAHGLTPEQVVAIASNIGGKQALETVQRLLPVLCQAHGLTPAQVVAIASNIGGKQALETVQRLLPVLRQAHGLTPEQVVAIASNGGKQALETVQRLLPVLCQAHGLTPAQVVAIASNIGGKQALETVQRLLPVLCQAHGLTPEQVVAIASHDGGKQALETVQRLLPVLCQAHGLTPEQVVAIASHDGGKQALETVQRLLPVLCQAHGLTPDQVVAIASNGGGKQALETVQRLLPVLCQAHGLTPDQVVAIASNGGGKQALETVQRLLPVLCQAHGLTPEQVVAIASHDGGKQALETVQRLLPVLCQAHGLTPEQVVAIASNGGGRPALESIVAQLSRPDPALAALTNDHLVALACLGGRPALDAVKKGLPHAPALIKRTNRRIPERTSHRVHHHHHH


How the values were obtained:
[1] = target: T1, sN-TALER IV-1 (GinH106Y-TALE13); test: cell_activity; E. coli; sequenced; details: tags: 6-His; chain copies: 2 per site, tetramer in synapsis (stated)
Procedure: To test for recombination, E. coli DH5alpha cells were co-transformed with different combinations of TALER expression construct and TALER reporter construct pairs (Tables 6 and 7). The N-TALER expression and reporter constructs were in an approximate 1:1 mass ratio during the transformation. The co-transformed bacteria were plated on media with chloramphenicol, kanamycin, and X-gal then incubated at 37° C. for 18 to 36 hours. Control samples consisted of transformations using the reporter construct alone. Control transformants were similarly plated. The bacterial transformation protocol was either heat shock or electroporation per standard molecular biology techniques.
PCR was used to confirm that the predicted recombination had occurred in colonies which were white or sectored. PCR primers were designed so that a PCR product of approximately 877 bp (depending on the length of the spacers) would be produced from the non-recombined reporter constructs, and a PCR product of approximately 470 bp would be produced from reporter constructs that had undergone N-TALER-mediated recombination. Standard colony PCR was performed on white, blue, and sectored colonies from several plates representing different pairs of N-TALER expression construct and reporter construct co-transformation combinations.
To confirm that the recombination occurred as predicted, several of the PCR products were sequenced. Sequencing results for PCR products generated from white colonies from the sN-TALER IV-1 and Gin18TALE+1; sN-TALER IV-1 and Gin20TALE+0; or sN-TALER IV-1 and Gin20TALE+10 reporter constructs are shown in FIG. 7. No mismatches were detected relative to the predicted recombinase core sequence in any of the PCR products sequenced thereby confirming a base-perfect recombination with N-TALERs (the few single-nucleotide mismatches detected in the sN-TALER IV-1 and Gin20TALE+0 combination were rechecked and consequently dismissed as sequencing error).

[2] = target: T2, pN-TALER IV-1-EE2 (GinL7C7-EE2-TALE13); test: cell_activity; E. coli; details: tags: 6-His

Binder	activity [1] [score]	activity [2] [score]
Gin18TALE+1 (dsDNA) DNA 1: AGAAGGTATTTATATCCAAAACCATGGTTTACAATATAAATACCTTCT DNA 2: AGAAGGTATTTATATTGTAAACCATGGTTTTGGATATAAATACCTTCT	1	1
Gin20TALE+0 (dsDNA) DNA 1: AGAAGGTATTTATATCCAAAACCATGGTTTACAGTATAAATACCTTCT DNA 2: AGAAGGTATTTATACTGTAAACCATGGTTTTGGATATAAATACCTTCT	1	1
Gin18TALE+0 (dsDNA) DNA 1: AGAAGGTATTTATACCAAAACCATGGTTTACATATAAATACCTTCT DNA 2: AGAAGGTATTTATATGTAAACCATGGTTTTGGTATAAATACCTTCT		1

From US20140193915, “COMPOSITIONS AND METHODS FOR CUSTOM SITE-SPECIFIC DNA RECOMBINASES” (Monsanto Technology, LLC, published 2014)
